Reference: IntAct's records for PubMed 25988182

B1: Regulator of RpoS (Escherichia coli (strain K12)), P0AEV1 (parent)
chain: MTQPLVGKQILIVEDEQVFRSLLDSWFSSLGATTVLAADGVDALELLGGFTPDLMICDIAMPRMNGLKLLEHIRNRGDQTPVLVISATENMADIAKALRLGVEDVLLKPVKDLNRLREMVFACLYPSMFNSRVEEEERLFRDWDAMVDNPAAAAKLLQELQPPVQQVISHCRVNYRQLVAADKPGLVLDIAALSENDLAFYCLDVTRAGHNGVLAALLLRALFNGLLQEQLAHQNQRLPELGALLKQVNHLLRQANLPGQFPLLVGYYHRELKNLILVSAGLNATLNTGEHQVQISNGVPLGTLGNAYLNQLSQRCDAWQCQIWGTGGRLRLMLSAE
partner: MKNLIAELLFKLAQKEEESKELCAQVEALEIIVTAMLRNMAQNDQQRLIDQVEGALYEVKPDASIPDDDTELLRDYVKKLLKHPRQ

Variants of: B1
Details: with irap_ecoli iraP
With MTQPLVGKQILIVEDEQVFRSLLDSWFSSLGATTVLAADGVDALELLGGFTPDLMICPIAMPRMNGLKLLEHIRNRGDQTPVLVISATENMADIAKALRLGVEDVLLKPVKDLNRLREMVFACLYPSMFNSRVEEEERLFRDWDAMVDNPAAAAKLLQELQPPVQQVISHCRVNYRQLVAADKPGLVLDIAALSENDLAFYCLDVTRAGHNGVLAALLLRALFNGLLQEQLAHQNQRLPELGALLKQVNHLLRQANLPGQFPLLVGYYHRELKNLILVSAGLNATLNTGEHQVQISNGVPLGTLGNAYLNQLSQRCDAWQCQIWGTGGRLRLMLSAE [D58P] the “effect of a mutation on the interaction” value was “disrupting interaction strength”. For MTQPLVGKQILIVEDEQVFRSLLDSWFSSLGATTVLAADGVDALELLGGFTPDLMICAIAMPRMNGLKLLEHIRNRGDQTPVLVISATENMADIAKALRLGVEDVLLKPVKDLNRLREMVFACLYPSMFNSRVEEEERLFRDWDAMVDNPAAAAKLLQELQPPVQQVISHCRVNYRQLVAADKPGLVLDIAALSENDLAFYCLDVTRAGHNGVLAALLLRALFNGLLQEQLAHQNQRLPELGALLKQVNHLLRQANLPGQFPLLVGYYHRELKNLILVSAGLNATLNTGEHQVQISNGVPLGTLGNAYLNQLSQRCDAWQCQIWGTGGRLRLMLSAE [D58A], the “effect of a mutation on the interaction” value was “decreasing interaction strength”.
